Source: the supplement of paper PMC10126150
± gives the standard deviation of the averaged measurements.

tested on: ATP; experiment: switch fluorescence ratio, 500 uM ATP over buffer (Cy3 cluster intensity, sum of 5 cycles each) (fold (ratio)); higher = stronger signal-on switching upon ATP binding; sequences stand for … in TCGTCGGCAGCGTCAGATGTGTATAAGAGACAGTTTTTTTTTTTTTTTTTTTTTTTTT…TC; conditions: aptamer strand: ATP DNA aptamer (quencher-CACCTGGGGGAGTATTGCGGAGGAAGG + anchor), 100 nM annealed; ATP concentration: 500 uM
Outline: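 The fluorescence ratio divides summed target-cycle Cy3 intensity by summed buffer-cycle Cy3 intensity for each cluster and is averaged per switch-domain sequence. Cy3-labelled switching-strand clusters on a modified Illumina MiSeq flow-cell were annealed to 100 nM quencher-labelled ATP aptamer, then imaged in selection buffer and again after 15 min with 500 uM ATP at 22 °C. Five such cycles were run, with NaOH stripping and re-annealing between them, and clusters outside 100-1000 RFU were excluded.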
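Also: ATP exposure 15 min at 22 °C before imaging.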

Sequence	switch fluorescence ratio
GTGTAATAGG	0.9713 ± 0.0056
GTGTAATAGT	0.996 ± 0.021
GTGTAATTTG	0.994 ± 0.036
GTGTAATTTT	0.993 ± 0.032
GTGTAGAAAT	0.9834 ± 0.0068
GTGTATAGGC	1.09 ± 0.038
GTGTATAGTG	0.982 ± 0.018
GTGTATCGGT	0.994 ± 0.023
GTGTCAGGGG	1.04 ± 0.07
GTGTCCCCTG	0.981 ± 0.04
GTGTCCTGTA	0.998 ± 0.072
GTGTCGAAGG	0.976 ± 0.051
GTGTCGTGGC	1.012 ± 0.0029
GTGTGAAAGG	1 ± 0.013
GTGTGAGTGT	0.973 ± 0.016
GTGTGGGGGC	1.008 ± 0.0072
GTGTGGGGGG	1.02 ± 0.075
GTGTGGTATA	0.982 ± 0.012
GTGTGGTGCA	0.9802 ± 0.0045
GTGTGTGGAC	1.01 ± 0.026
GTGTGTTCGC	0.9546 ± 0.0069
GTGTTAATTA	0.989 ± 0.021
GTGTTACGGG	0.985 ± 0.016
GTGTTACTGT	0.959 ± 0.026
GTGTTAGCTG	1.02 ± 0.028

Sequence	switch fluorescence ratio
GTGTTAGGGC	0.9919 ± 0.0057
GTGTTAGTAT	1.02 ± 0.031
GTGTTAGTTA	1.01 ± 0.011
GTGTTATCTG	0.978 ± 0.012
GTGTTATGAG	0.995 ± 0.067
GTGTTCTAGT	0.955 ± 0.012
GTGTTGCGGC	0.986 ± 0.016
GTGTTGGAGG	0.996 ± 0.017
GTGTTGTTGG	0.986 ± 0.019
GTGTTTCCTG	0.994 ± 0.028
GTGTTTCCTT	1.02 ± 0.036
GTGTTTGACA	0.9604 ± 0.005
GTGTTTGTTC	0.968 ± 0.013
GTGTTTTACG	1.01 ± 0.021
GTTAAAACTT	1.005 ± 0.0097
GTTAAAGGTA	0.962 ± 0.019
GTTAAATGTG	0.972 ± 0.024
GTTAAATTTT	0.986 ± 0.024
GTTAACGTGG	0.99 ± 0.019
GTTAACTGAG	1.03 ± 0.041
GTTAAGGTTT	1.03 ± 0.063
GTTAATGGAA	0.986 ± 0.039
GTTACAATGG	0.991 ± 0.038
GTTACATAGC	1.08 ± 0.014
GTTACATGCG	0.976 ± 0.02

Sequence	switch fluorescence ratio
GTTACGGCAA	1.27 ± 0.064
GTTACTAATG	0.9996 ± 0.0029
GTTACTGGAC	1.12 ± 0.14
GTTAGAGCCG	1.09 ± 0.062
GTTAGATACG	1 ± 0.028
GTTAGATGGG	1 ± 0.034
GTTAGATGGT	0.9851 ± 0.0037
GTTAGGCCAG	0.986 ± 0.041
GTTAGGGGCG	0.982 ± 0.013
GTTAGGGGGT	0.994 ± 0.027
GTTAGGTAGG	0.9818 ± 0.005
GTTAGTACTG	0.96042 ± 0.00063
GTTATAAAAA	1.01 ± 0.07
GTTATACGTA	1.03 ± 0.019
GTTATAGGAG	0.99 ± 0.019
GTTATAGGGG	0.99 ± 0.018
GTTATAGGTG	1.06 ± 0.065
GTTATAGTGG	0.981 ± 0.01
GTTATGAGTT	0.975 ± 0.029
GTTATGCTCT	1.01 ± 0.014
GTTATGGGGG	1.04 ± 0.013
GTTATGGGTG	0.983 ± 0.029
GTTATTACGT	1.03 ± 0.021
GTTATTAGCT	0.992 ± 0.013
GTTATTATTC	0.9922 ± 0.0057

Sequence	switch fluorescence ratio
GTTATTATTG	1.02 ± 0.013
GTTATTGGAG	0.999 ± 0.026
GTTATTGGGA	0.99 ± 0.051
GTTATTGTTT	0.983 ± 0.041
GTTATTTACT	1.024 ± 0.0033
GTTATTTAGG	0.9966 ± 0.0084
GTTCAAAAGG	0.919 ± 0.028
GTTCAAAGGT	0.96 ± 0.032
GTTCAAATCA	0.997 ± 0.047
GTTCAATTGG	0.98 ± 0.021
GTTCACGTAA	1.16 ± 0.15
GTTCACTTTT	1.02 ± 0.036
GTTCAGGGCT	1.01 ± 0.02
GTTCGAGGGC	1.046 ± 0.002
GTTCGCATTG	1.08 ± 0.024
GTTCGCGGTG	0.998 ± 0.017
GTTCTCAGTG	1.01 ± 0.03
GTTCTGCAAT	3.97 ± 0.11
GTTCTGGGAG	1 ± 0.012
GTTCTTGCGG	0.959 ± 0.022
GTTCTTTGG	0.9949 ± 0.0077
GTTGAAAAAA	1.31 ± 0.73
GTTGAAAAGG	0.971 ± 0.051
GTTGAAGGGA	0.983 ± 0.018
GTTGAAGTTG	0.968 ± 0.02

Sequence	switch fluorescence ratio
GTTGACAGG	1.025 ± 0.0066
GTTGACCGGT	1 ± 0.016
GTTGACGGGG	1.01 ± 0.021
GTTGACGGTG	0.982 ± 0.039
GTTGACTTGA	1.02 ± 0.03
GTTGAGGGA	1.04 ± 0.079
GTTGAGGTCG	0.995 ± 0.022
GTTGAGTATA	1.01 ± 0.033
GTTGATGTAT	0.987 ± 0.021
GTTGCACTTT	0.983 ± 0.052
GTTGCATGGG	0.963 ± 0.012
GTTGCCGGTT	1.026 ± 0.008
GTTGCCTTGC	1.06 ± 0.011
GTTGCGGAAT	1.03 ± 0.023
GTTGCGGGTT	1.01 ± 0.039
GTTGCGTTTT	0.9852 ± 0.0095
GTTGCTAGGT	0.9984 ± 0.0044
GTTGGAATGA	1 ± 0.037
GTTGGACGCT	0.986 ± 0.029
GTTGGAGAGG	0.974 ± 0.087
GTTGGAGATT	0.961 ± 0.042
GTTGGAGGGT	0.977 ± 0.047
GTTGGAGTGC	0.9817 ± 0.0017
GTTGGCTTTG	0.997 ± 0.048
GTTGGGACGA	1 ± 0.015

Sequence	switch fluorescence ratio
GTTGGGAGGA	0.989 ± 0.018
GTTGGGAGTC	1.01 ± 0.012
GTTGGGATGT	0.996 ± 0.015
GTTGGGCACT	0.992 ± 0.033
GTTGGGCCGG	0.987 ± 0.021
GTTGGGGAGG	1.01 ± 0.035
GTTGGGGATT	0.977 ± 0.016
GTTGGGGCCG	0.991 ± 0.0068
GTTGGGGCTT	1.021 ± 0.002
GTTGGGGTGT	1.01 ± 0.013
GTTGGGTTAT	0.982 ± 0.017
GTTGGTAGCC	0.978 ± 0.022
GTTGGTAGGG	0.9979 ± 0.0099
GTTGGTAGGT	0.997 ± 0.019
GTTGGTTAGC	1.02 ± 0.035
GTTGGTTGTA	0.987 ± 0.057
GTTGTAAAGG	1.02 ± 0.026
GTTGTAGATG	1.005 ± 0.0058
GTTGTAGCAC	1.07 ± 0.029
GTTGTAGTCC	1.02 ± 0.022
GTTGTCAGGT	1.001 ± 0.0018
GTTGTCTTTG	1.01 ± 0.031
GTTGTGAATA	0.994 ± 0.028
GTTGTGGGAA	0.98266 ± 0.00039
GTTGTGGGTG	1.03 ± 0.018

Sequence	switch fluorescence ratio
GTTGTGGTTT	0.975 ± 0.034
GTTGTGTCTT	0.991 ± 0.041
GTTGTGTTAA	0.997 ± 0.014
GTTGTTGCAA	1.13 ± 0.21
GTTGTTGTCG	0.974 ± 0.1
GTTGTTTTAG	0.992 ± 0.019
GTTTAAAGAC	0.981 ± 0.02
GTTTAACGGG	1.03 ± 0.051
GTTTAAGTTA	0.991 ± 0.025
GTTTAATCTT	0.9896 ± 0.0031
GTTTAATGGA	1.01 ± 0.021
GTTTAATTGG	1 ± 0.024
GTTTACCTTC	1.04 ± 0.062
GTTTAGAAAG	1.01 ± 0.017
GTTTAGAGGA	1 ± 0.025
GTTTAGAGGT	0.9925 ± 0.0082
GTTTAGAGTG	0.944 ± 0.033
GTTTAGGGGA	0.999 ± 0.015
GTTTAGGGTT	1.02 ± 0.018
GTTTAGTATT	0.999 ± 0.019
GTTTATCGGG	0.964 ± 0.0099
GTTTATGGTG	0.999 ± 0.025
GTTTATTTCG	0.987 ± 0.059
GTTTCAGGGA	1.01 ± 0.013
GTTTCAGGTA	1.02 ± 0.029

Sequence	switch fluorescence ratio
GTTTCATGGG	0.9685 ± 0.0041
GTTTCCGATT	0.991 ± 0.019
GTTTCGAGGG	0.974 ± 0.037
GTTTCGGGGT	1.004 ± 0.0055
GTTTCGTTGT	0.9798 ± 0.0019
GTTTCTCATC	1.02 ± 0.011
GTTTCTTAGA	0.978 ± 0.036
GTTTCTTTTA	0.99 ± 0.02
GTTTGAATTG	0.9879 ± 0.0049
GTTTGAGGGT	0.9939 ± 0.0087
GTTTGAGTCT	1.01 ± 0.028
GTTTGATCGG	0.97 ± 0.013
GTTTGCACTG	1.04 ± 0.021
GTTTGCCTGT	0.9845 ± 0.0094
GTTTGCTTTT	1 ± 0.046
GTTTGGATCG	1 ± 0.015
GTTTGGGATT	1 ± 0.024
GTTTGGGCGG	0.978 ± 0.057
GTTTGGGGTT	0.979 ± 0.031
GTTTGGGTTT	0.992 ± 0.031
GTTTGGTCGG	1.04 ± 0.035
GTTTGTAAGT	1.01 ± 0.045
GTTTGTAGGG	0.988 ± 0.037
GTTTGTATGG	1.01 ± 0.018
GTTTGTCAGC	1.01 ± 0.024
